According to article PMC10686230 (The Journal of Cell Biology, 2023):

Molecular target: the molecule itself
Experiment: SEC + SEC-MALS

B1: SMGL-1 (purified, GST tag cleaved) (natural protein, C. elegans, UniProt P90841 1-1615, looked up)
chain: MAHMRGTNHEKEKHDDENSKILLKERYNLLKWLTNVEMRSPNVLIPVQIANYVESLPFCKLAVSPKCDRVAVMSYARQLDIYQISGEILTHESSVQVLEETSPEYCILQFSSSSTLILSSRSTPHIDVFDSMGAYLYDIPLELHEGIFDVNSAICGMQTFENYSSSSNDKFIEILYVLQYSGVFSAFKIGRLSKYVKMWTVQLDIGQTGSFTVLPQYNLLLVASHHKESTSLVPPAGLCSFRMMDMDPFVEPIRISTPDGGFFSRLPFSTSFMSYLPRMSLSFDSQLLVSVSTSGSLYLFEIPSLHVKFSFNFISGPRPVDACFVDSDEIAVIYDNGYLLRCSLEDLEEKMYSVKMRSKKEIDEEPELKDFYSEQTVMVSPAQREIFLLTADGDNSFLRKAAHKRVQLAGQLWFYTVWNSLKKLVGMAMGEPAEQLHFETHIAKFEFSLIHSPTRTLQELFDRTLKEHDYTRARELAETYDTIDIYVVLKSEWIDKCSKNKVTVEDVEDILKRIGDSEWAAEQCASADSDDFEVHKALIDLGLSLGESSVTWQIRLLHHWRMLEVCRIKGDVDIYMMARNGSCLDAALTFAHNGDIDSLTRIIESNMAVMKHHQKRILSAIPTCTSPTKYEILMPKREDGETEEQWELEEQNDGIYERLDKILMEHPDAESLIRSINVGNIPNEETFDFTSWVRETLPKIDFECGMTDICVNLLQIAYERGYEDLIHDLATWQPYAQYIRICSSVSESITSFQDSTMKSFTDRFSRLLDSELIKNAKDIVSLIEWKIKMTSSDSEESIEDRLRDAVTTLMKATNERTTKVLVAFRNELPSVVDDHVILEVLLNMTSTGADLMKSLGDLPVDKYVNVTSSLGSLMSRGVKMTFKSIFESMKEPDGARRVLIKLSRSGNCSNFDDWMSLRDDIYDMANGIYEDLVTTEEALEIFAGEILEEERIGSHPELMELVLTLNPKEDNSNPRKLSIAKSADVLLSKSDELMNEATQRGDPLLGRSRFFAVAARPISPKKSKEKLDWLDAIDAALELGCTMMPIAIKFCEHDSLLRDVVGLGSNYKQGKKILSFAKQLNIDTPIATALSYCALAALNANDAVYLSKYIGEVMKAKGVPVVHKLCMQIMNSSHVPTDMEDVYSCAVLNSSEENLLDTVDAIASSEKRLSESRRCREIRLDDIPVSEAVVGDPMYTPMRLYNARKEISGDVKQKITFYGKRNLWETNYGKREGFDVMKRLYAHESSTVALCFSLFEPAENVETGELSWTKNDKLRRYERGLRFFQDRVPLSDLVTAPASAIINEANKGDASITAIDRIEDYGCDRRRFIGDAEYRTETIIGLAGTENEQIFADALELAEKYEIDEWKLHMASLEYLLDPSYNVPIIDVKQIMKSRKHLSKLRTKLDEFHSRLRSMVLPSLETNEQFLSYISLFADAEPEKKLGDTIKKIISKMKNVEAIRLWTDAKYLSSTLNKIPDGNLRAIISSVLQFPKIGVKACEMSAEFLLEGDDTRPPSNPFTLFLLMRSNIEDFLELVANKKSRDDEIAYLDQAVILLENTPKVPPLLLDAIKMRSEKMHRATVTPEPATPSNGSSTGLSSYFSNTEDNSGMMKRRKN
stoichiometry N: 4
